According to the supplement of paper PMC10201428:
± gives the standard deviation of the averaged measurements.

Tests used:
[1] = tested on: VchCAST RNA-guided transposition machinery (E. coli BL21(DE3) host, lacZ target); assay: relative integration efficiency (T-RL orientation) vs wild-type transposon end (log2 (normalized fold change)); transposon end mutated: right end (5 bp flank + 75 bp right end); higher = more efficient transposition
In short: (§1)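 Co-transformation of E. coli BL21(DE3) combined a pUC57 mini-transposon donor, holding barcoded pools of 1549 left-end or 1849 right-end variants, with a T7-driven plasmid encoding a CRISPR array, tniQ-cas8-cas7-cas6 and tnsA-tnsB-tnsC. After plating with 0.1 mM IPTG at 37°C for 18 h, input plasmids and genomic integration junctions were PCR-amplified and Illumina-sequenced across two biological output replicates, with four reference barcodes. Relative integration efficiency is the normalised, log-transformed output/input barcode fold change.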

[2] = tested on: VchCAST RNA-guided transposition machinery (E. coli BL21(DE3) host, lacZ target); assay: relative integration efficiency (T-LR orientation) vs wild-type transposon end (log2 (normalized fold change)); transposon end mutated: right end (5 bp flank + 75 bp right end); higher = more efficient transposition
In short: as §1

| Sequence | relative integration efficiency (log2) [1] | relative integration efficiency (log2) [2] |
| --- | --- | --- |
| ACATTTGTTGATACAACCATAAGTTGATATTTTCAACCATAAAGTGATATTTATCACACCCATAAATTGATATTGCCTCTGATCATAGTCAGACCAACATTGCTACGACCCGTATTCGCACCGACAC | -0.032 ± 0.064 | -0.507 ± 0.46 |
| ACATTTGTTGATACAACCATAAGTTGATATTTTCAACCATAAAGTGATATTTATCAGTGGGTATTTAACTATAACGCTCTGATCATAGTCAGACCAACATTGCTACGACCCGTATTCGCACCGACAC | -0.687 ± 0.11 | 2.69 ± 0.17 |
| ACATTTGTTGATACAACCATAAGTTGATATTTTCAACCATAAGTTGATATTTTTCACAACCATAAAATGATAATTACTCTGATCATAGTCAGACCAACATTGCTACGACCCGTATTCGCACCGACAC | 0.228 ± 0.008 | -0.0651 ± 0.34 |
| ACATTTGTTGATACAACCATAAGTTGATATTTTCAACCATAAGTTGATATTTTTCACAACCATAAAGTGATATTTACTCTGATCATAGTCAGACCAACATTGCTACGACCCGTATTCGCACCGACAC | 0.196 ± 0.011 | -0.145 ± 0.024 |
| ACATTTGTTGATACAACCATAAGTTGATATTTTCAACCATAAGTTGATATTTTTCACAACCATAAGTTGATATTTTCTCTGATCATAGTCAGACCAACATTGCTACGACCCGTATTCGCACCGACAC | 0.214 ± 0.079 | -0.207 ± 0.25 |
| ACATTTGTTGATACAACCATAAGTTGATATTTTCAACCATAAGTTGATATTTTTCACAACCATATATTGATATCTCCTCTGATCATAGTCAGACCAACATTGCTACGACCCGTATTCGCACCGACAC | -0.102 ± 0.021 | -0.115 ± 0.22 |
| ACATTTGTTGATACAACCATAAGTTGATATTTTCAACCATAAGTTGATATTTTTCACACCCATAAATTGATAATTACTCTGATCATAGTCAGACCAACATTGCTACGACCCGTATTCGCACCGACAC | 0.0466 ± 0.027 | -0.132 ± 0.17 |
| ACATTTGTTGATACAACCATAAGTTGATATTTTCAACCATAAGTTGATATTTTTCACACCCATAAATTGATATTGCCTCTGATCATAGTCAGACCAACATTGCTACGACCCGTATTCGCACCGACAC | 0.348 ± 0.062 | 0.248 ± 0.18 |
| ACATTTGTTGATACAACCATAAGTTGATATTTTCAACCATAAGTTGATATTTTTCAGTGGGTATTTAACTATAACGCTCTGATCATAGTCAGACCAACATTGCTACGACCCGTATTCGCACCGACAC | -0.302 ± 0.092 | 2.85 ± 0.1 |
| ACATTTGTTGATACAACCATAAGTTGATATTTTCAACCATATATTGATATCTCTCACAACCATAAAATGATAATTACTCTGATCATAGTCAGACCAACATTGCTACGACCCGTATTCGCACCGACAC | -0.54 ± 0.12 | -0.461 ± 0.17 |
| ACATTTGTTGATACAACCATAAGTTGATATTTTCAACCATATATTGATATCTCTCACAACCATAAAGTGATATTTACTCTGATCATAGTCAGACCAACATTGCTACGACCCGTATTCGCACCGACAC | -0.324 ± 0.14 | -0.077 ± 0.032 |
| ACATTTGTTGATACAACCATAAGTTGATATTTTCAACCATATATTGATATCTCTCACAACCATAAGTTGATATTTTCTCTGATCATAGTCAGACCAACATTGCTACGACCCGTATTCGCACCGACAC | -0.118 ± 0.16 | -0.0553 ± 0.32 |
| ACATTTGTTGATACAACCATAAGTTGATATTTTCAACCATATATTGATATCTCTCACAACCATATATTGATATCTCCTCTGATCATAGTCAGACCAACATTGCTACGACCCGTATTCGCACCGACAC | -0.28 ± 0.11 | 0.206 ± 0.098 |
| ACATTTGTTGATACAACCATAAGTTGATATTTTCAACCATATATTGATATCTCTCACACCCATAAATTGATAATTACTCTGATCATAGTCAGACCAACATTGCTACGACCCGTATTCGCACCGACAC | -0.464 ± 0.15 | 0.134 ± 0.11 |
| ACATTTGTTGATACAACCATAAGTTGATATTTTCAACCATATATTGATATCTCTCACACCCATAAATTGATATTGCCTCTGATCATAGTCAGACCAACATTGCTACGACCCGTATTCGCACCGACAC | -0.363 ± 0.0055 | -0.117 ± 0.12 |
| ACATTTGTTGATACAACCATAAGTTGATATTTTCAACCATATATTGATATCTCTCAGTGGGTATTTAACTATAACGCTCTGATCATAGTCAGACCAACATTGCTACGACCCGTATTCGCACCGACAC | -1.15 ± 0.24 | 2.4 ± 0.039 |
| ACATTTGTTGATACAACCATAAGTTGATATTTTCACCCATAAATTGATAATTATCACAACCATAAAATGATAATTACTCTGATCATAGTCAGACCAACATTGCTACGACCCGTATTCGCACCGACAC | -0.0424 ± 0.077 | -0.584 ± 0.047 |
| ACATTTGTTGATACAACCATAAGTTGATATTTTCACCCATAAATTGATAATTATCACAACCATAAAGTGATATTTACTCTGATCATAGTCAGACCAACATTGCTACGACCCGTATTCGCACCGACAC | -0.345 ± 0.068 | -0.211 ± 0.3 |
